Results published in publication PMC4505944, “The THERMOSENSITIVE MALE STERILE 1 Interacts with the BiPs via DnaJ Domain and Stimulates Their ATPase Enzyme Activities in Arabidopsis” (PLoS ONE, 2015).

Experiments:
[1] = target: T1, BiP3 without signal peptide, His-tagged (Arabidopsis thaliana, UniProt Q8H1B3 36-675); assay: pull-down; 30 μg GST fusion or GST on Glutathione Sepharose 4B beads; 30 μg purified BiP1 or BiP3 with 1 mM ATP in 1 mL binding buffer (20 mM Hepes pH 6.8, 100 mM KCl, 5 mM MgCl2, 0.1% NP-40, 2% glycerol, 1 mM DTT, 1 mM EDTA), 4°C, 2 h; anti-His blot; conditions: both partners purified
T1 construct: full-length CDS without the signal peptide; Cloned into pET30a(+) (EcoRI/XhoI); further vector-derived residues between the tag and BiP3 are likely; also called BiP3-His; source: E. coli BL21, purified, dialyzed; not shown: His6, N-terminal, kept

[2] = target: T2, BiP1 without signal peptide, His-tagged (Arabidopsis thaliana, UniProt Q9LKR3 28-669); assay: as above; conditions: both partners purified
T2 construct: full-length CDS without the signal peptide; Cloned into pET30a(+) (EcoRI/XhoI); further vector-derived residues between the tag and BiP1 are likely; also called BiP1-His; source: E. coli BL21, purified, dialyzed; not shown: His6, N-terminal, kept
T2 sequence (Q9LKR3 28-669): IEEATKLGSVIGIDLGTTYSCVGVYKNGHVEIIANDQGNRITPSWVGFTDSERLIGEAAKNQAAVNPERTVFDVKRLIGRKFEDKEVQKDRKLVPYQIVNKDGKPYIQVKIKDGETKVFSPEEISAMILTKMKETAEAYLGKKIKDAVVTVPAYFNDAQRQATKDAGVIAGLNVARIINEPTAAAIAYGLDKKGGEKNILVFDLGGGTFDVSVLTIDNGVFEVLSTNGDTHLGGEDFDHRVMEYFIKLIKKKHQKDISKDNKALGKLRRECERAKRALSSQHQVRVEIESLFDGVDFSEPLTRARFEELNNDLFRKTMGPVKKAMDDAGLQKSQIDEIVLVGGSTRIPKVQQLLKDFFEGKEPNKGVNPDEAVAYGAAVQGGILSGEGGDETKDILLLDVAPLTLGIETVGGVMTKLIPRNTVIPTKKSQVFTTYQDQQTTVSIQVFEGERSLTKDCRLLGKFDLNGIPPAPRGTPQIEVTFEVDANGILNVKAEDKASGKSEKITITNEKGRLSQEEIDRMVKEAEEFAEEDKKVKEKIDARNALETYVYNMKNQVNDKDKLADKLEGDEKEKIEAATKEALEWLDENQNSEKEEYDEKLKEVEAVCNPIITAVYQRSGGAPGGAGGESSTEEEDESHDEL

T1 sequence (Q8H1B3 36-675): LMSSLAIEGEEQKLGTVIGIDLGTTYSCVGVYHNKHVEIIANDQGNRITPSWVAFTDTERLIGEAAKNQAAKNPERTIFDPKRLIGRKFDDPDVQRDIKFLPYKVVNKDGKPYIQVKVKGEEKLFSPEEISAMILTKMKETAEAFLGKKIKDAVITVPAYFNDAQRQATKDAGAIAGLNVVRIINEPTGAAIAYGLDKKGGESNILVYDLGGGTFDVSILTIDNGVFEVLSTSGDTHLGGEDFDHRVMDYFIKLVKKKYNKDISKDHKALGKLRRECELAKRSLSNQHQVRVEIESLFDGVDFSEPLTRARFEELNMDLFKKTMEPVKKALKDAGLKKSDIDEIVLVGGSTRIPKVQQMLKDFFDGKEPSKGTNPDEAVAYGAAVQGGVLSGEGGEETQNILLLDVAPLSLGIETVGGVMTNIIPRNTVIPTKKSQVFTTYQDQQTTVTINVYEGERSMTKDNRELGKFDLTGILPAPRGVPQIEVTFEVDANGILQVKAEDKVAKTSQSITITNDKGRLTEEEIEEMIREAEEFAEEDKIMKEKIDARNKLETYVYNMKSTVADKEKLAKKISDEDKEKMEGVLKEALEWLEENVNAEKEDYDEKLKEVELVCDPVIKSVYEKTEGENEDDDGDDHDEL

B1: recombinant TMS1 DnaJ domain with a GST tag (domain or fragment, Arabidopsis thaliana, UniProt Q9SR96 27-80, looked up)
chain: DPYKVLGVSKDAKQREIQKAFHKQSLKYHPDKNKDKGAQEKFAEINNAYEILSD
notes: DnaJ domain of TMS1 (AtERdj3A), Arabidopsis thaliana, 54 amino acid residues, 27-80 aa in TMS1; Cloned into pGEX4T-1 (EcoRI/XhoI); also called GST-DnaJ; source: E. coli BL21, purified, dialyzed
B1: binds [1]; binds [2].
